Results: PMC3407951 (EMBO Molecular Medicine, 2012)

Assays:
[1] = target: human NEP (Homo sapiens, UniProt P08473); settings: literature statement; ref Betts et al, [2008]; cited from earlier work
[2] = system: ADAM10; test: 0.4 µg; settings: human, 37°C, up to 24 h

human NEP, sequence (P08473 whole entry): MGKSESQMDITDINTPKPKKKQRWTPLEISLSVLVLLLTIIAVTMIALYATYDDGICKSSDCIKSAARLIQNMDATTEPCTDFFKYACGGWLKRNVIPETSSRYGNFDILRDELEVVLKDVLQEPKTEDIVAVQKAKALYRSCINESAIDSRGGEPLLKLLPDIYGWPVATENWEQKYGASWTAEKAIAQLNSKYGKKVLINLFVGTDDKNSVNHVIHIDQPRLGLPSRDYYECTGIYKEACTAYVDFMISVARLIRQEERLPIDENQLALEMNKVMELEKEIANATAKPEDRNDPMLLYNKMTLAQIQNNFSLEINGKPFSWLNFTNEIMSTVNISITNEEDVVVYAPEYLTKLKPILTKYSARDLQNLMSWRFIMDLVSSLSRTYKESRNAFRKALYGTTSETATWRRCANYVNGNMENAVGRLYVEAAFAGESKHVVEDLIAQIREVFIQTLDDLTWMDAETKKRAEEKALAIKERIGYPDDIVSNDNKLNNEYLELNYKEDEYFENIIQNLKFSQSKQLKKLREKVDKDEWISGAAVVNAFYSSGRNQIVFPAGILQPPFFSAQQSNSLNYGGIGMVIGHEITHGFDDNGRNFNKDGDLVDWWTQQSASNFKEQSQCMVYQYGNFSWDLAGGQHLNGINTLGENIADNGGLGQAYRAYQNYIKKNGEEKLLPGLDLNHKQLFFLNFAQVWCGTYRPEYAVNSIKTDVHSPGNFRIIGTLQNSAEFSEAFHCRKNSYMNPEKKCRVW

Row | fragment found [2] | Substance | NEP-mediated degradation [1]
1 | – | Aβ40 A21G: Aβ40 peptide with the Flemish mutation A21G (literature) | attenuated
2 | Aβ11–16 K16N, minor, 5 h | EVHHQNLVFFAEDVGSNK | –
